Laboratory results reported in patent US20210087296A1 (published 2021).

Tests used:
[1] = biological target: T1, matrix metalloproteinase-14 catalytic domain (cdMMP-14) (human, UniProt P50281 114-287, limits assumed, biotinylated with EZ-Link Sulfo-NHS-LC-Biotin for ELISA; amine-coupled to CM5 chip for SPR); experiment: ELISA, purified Fab titrated on immobilised biotin-cdMMP-14, anti-Fab-HRP
T1 construct: also called catalytic domain of MMP-14; wild-type MMP-14
Protocol: After labeling purified cdMMP-14 using EZ-Link Sulfo-NHS-LC biotinylation kit (Thermo Fisher), biotin-cdMMP-14 was incubated in a streptavidin coated ELISA plate (Thermo Scientific) blocked with biotin-BSA. After washing, 50 μL of 2 M Fabs were then added to the first well and serially diluted to ˜1 nM and incubated for 30 minutes at 4° C. After washing, the ELISA signals were developed by anti-Fab-HRP (Sigma) and TMB (Thermo Scientific). The color development reaction was stopped by addition of H₂SO₄, and the absorptions at 450 nm were measured.

[2] = biological target: T2, MMP-14 catalytic domain mutant T190A (human, UniProt P50281 114-287, limits assumed); experiment: competitive ELISA, mutant in solution against immobilised wild-type MMP-14
T2 construct: Position as printed
Protocol: (§1) Fab ELISA. Purified Fab was serially diluted in MMP-14-coated wells followed by incubation at ambient temperature for 1 hr. Bound Fabs were detected using the anti-Fab-HRP conjugate. The half-maximal effective concentration (EC₅₀) was calculated from a four-parametric logistic curve-fitting analysis.

[3] = biological target: T3, MMP-14 catalytic domain mutant F198A (human, UniProt P50281 114-287, limits assumed); experiment: as above
T3 construct: Position as printed
Protocol: as §1

[4] = biological target: T4, MMP-14 catalytic domain mutant Y203A (human, UniProt P50281 114-287, limits assumed); experiment: as above
T4 construct: Position as printed
Protocol: as §1

[5] = biological target: T5, MMP-14 catalytic domain mutant F204A (human, UniProt P50281 114-287, limits assumed); experiment: as above
T5 construct: Position as printed
Protocol: as §1

[6] = biological target: T6, MMP-14 catalytic domain mutant N231A (human, UniProt P50281 114-287, limits assumed); experiment: as above
T6 construct: Position as printed
Protocol: as §1

Row | Binder | EC50 [1] [nM] | binding result [2] | binding result [3] | binding result [4] | binding result [5] | binding result [6]
1 | Fab R2C14 (Fab, V domains shown, Fab) VH: EVQLVESGGGLVQPGGSLRLSCAASGFNIYSSSIHWVRQAPGKGLEWVASIYSYSGYTYYADSVKGRFTISADTSKNTAYLQMNSLRAEDTAVYYCARVSNRYNRSSASIAGLQLFRPYGMDYWGQGTLVTVSS VL: DIQMTQSPSSLSASVGDRVTITCRASQSVSSAVAWYQQKPGKAPKLLIYSASSLYSGVPSRFSGSRSGTDFTLTISSLQPEDFATYYCQQSSYSLITFGQGTKVEIKR | 1.2 |  |  |  |  | 
2 | Fab 3A2 (Fab, V domains shown, Synthetic human Fab from E. coli periplasm; also called R3C9; not shown: His tag at C-terminus of heavy chain) VH: EVQLVESGGGLVQPGGSLRLSCAASGFNLSSSSMHWVRQAPGKGLEWVASIYPSYSYTYYADSVKGRFTISADTSKNTAYLQMNSLRAEDTAVYYCARVKLQKDKSHQWIRNLVATPYGRYVMDYWGQGTLVTVSS VL: DIQMTQSPSSLSASVGDRVTITCRASQSVSSAVAWYQQKPGKAPKLLIYSASSLYSGVPSRFSGSRSGTDFTLTISSLQPEDFATYYCQQYGYPITFGQGTKVEIKR |  | binds | binds | binds | binds | binds
